From patent publication US20240117018A1

Columns and labels:
Experiment in all cases: cell-based or functional assay
[1] = molecular target: HIV-1 Env pseudovirus Ce2060_G9 (HIV-1)
[2] = molecular target: HIV-1 Env pseudovirus ZM247v1(Rev-) (HIV-1)
[3] = molecular target: HIV-1 Env pseudovirus ZM135M.PL10a (HIV-1)
[4] = molecular target: HIV-1 Env pseudovirus MS208.A1 (HIV-1)
[5] = molecular target: HIV-1 Env pseudovirus Ce1176_A3 (HIV-1)
[6] = molecular target: HIV-1 Env pseudovirus ZM197M.PB7 (HIV-1)
[7] = molecular target: HIV-1 Env pseudovirus Q842.d12 (HIV-1)
[8] = molecular target: HIV-1 Env pseudovirus Ce0682_E4 (HIV-1)
[9] = molecular target: HIV-1 Env pseudovirus 6535.3 (HIV-1)
[10] = molecular target: HIV-1 Env of pseudovirus CNE53 (HIV-1)
[11] = molecular target: HIV-1 Env of pseudovirus QH0692.42 (HIV-1)
[12] = molecular target: HIV-1 Env of pseudovirus Q842.d12 (HIV-1)
[13] = molecular target: HIV-1 Env of pseudovirus Ce1176_A3 (HIV-1)
[14] = molecular target: HIV-1 Env of pseudovirus WEAU_d15_410_787 (HIV-1)
[15] = molecular target: HIV-1 Env of pseudovirus 0260.v5.c36 (HIV-1)
[16] = molecular target: HIV-1 Env of pseudovirus ZM53M.PB12 (HIV-1)
[17] = molecular target: Env of HIV-1 pseudovirus 6240_08_TA5_4622 (HIV-1)
[18] = molecular target: Env of HIV-1 pseudovirus Ce2060_G9 (HIV-1)
[19] = molecular target: Env of HIV-1 pseudovirus WEAU_d15_410_787 (HIV-1)
[20] = molecular target: Env of HIV-1 pseudovirus CNE21 (HIV-1)
[21] = molecular target: Env of HIV-1 pseudovirus CNE19 (HIV-1)
[22] = molecular target: Env of HIV-1 pseudovirus ZM197M.PB7 (HIV-1)
[23] = molecular target: Env of HIV-1 pseudovirus TRJO4551.58 (HIV-1)
[24] = molecular target: Env of HIV-1 pseudovirus CNE58 (HIV-1)
[25] = molecular target: Env of HIV-1 pseudovirus CNE30 (HIV-1)
[26] = molecular target: Env of HIV-1 pseudovirus T250-4 (HIV-1)
[27] = molecular target: Env of HIV-1 pseudovirus ZM135M.PL10a (HIV-1)
[28] = molecular target: Env of HIV-1 pseudovirus Q769.d22 (HIV-1)
[29] = molecular target: Env of HIV-1 pseudovirus ZM214M.PL15 (HIV-1)
[30] = molecular target: Env of HIV-1 pseudovirus SC422661.8 (HIV-1)

Substance: N49P11 (antibody)
- IC50 [1]: 3.33 µg/mL
- IC80 [1]: 13.2 µg/mL
- MPI [1]: 100
- IC50 [2]: 7.48 µg/mL
- IC80 [2]: 21.5 µg/mL
- MPI [2]: 100
- IC50 [3]: 3.97 µg/mL
- IC80 [3]: 16.6 µg/mL
- MPI [3]: 100
- IC50 [4]: 0.259 µg/mL
- IC80 [4]: 1.94 µg/mL
- MPI [4]: 100
- IC50 [5]: 0.946 µg/mL
- IC80 [5]: 6.05 µg/mL
- MPI [5]: 100
- IC50 [6]: 0.303 µg/mL
- IC80 [6]: 1.59 µg/mL
- MPI [6]: 100
- IC50 [7]: 0.027 µg/mL
- IC80 [7]: 0.103 µg/mL
- MPI [7]: 100
- IC50 [8]: 0.091 µg/mL
- IC80 [8]: 0.387 µg/mL
- MPI [8]: 100
- IC50 [9]: 8.22 µg/mL
- IC80 [9]: 17.2 µg/mL
- MPI [9]: 100

Substance: PGT128 (antibody)
- neutralization IC50 [10]: 0.01 µg/mL
- neutralization IC80 [10]: 0.049 µg/mL
- neutralization IC50 [11]: 0.029 µg/mL
- neutralization IC80 [11]: 0.081 µg/mL
- neutralization IC50 [12]: 0.008 µg/mL
- neutralization IC80 [12]: 0.102 µg/mL
- neutralization IC50 [13]: 0.009 µg/mL
- neutralization IC80 [13]: 0.026 µg/mL
- neutralization IC50 [14]: 0.032 µg/mL
- neutralization IC80 [14]: 0.153 µg/mL
- neutralization IC50 [15]: 0.058 µg/mL
- neutralization IC80 [15]: 0.162 µg/mL
- neutralization IC50 [16]: > 50 µg/mL
- neutralization IC80 [16]: > 50 µg/mL

Substance: PGT145 (antibody)
- neutralization IC50 [10]: 0.006 µg/mL
- neutralization IC80 [10]: 0.084 µg/mL
- neutralization IC50 [11]: > 50 µg/mL
- neutralization IC80 [11]: > 50 µg/mL
- neutralization IC50 [12]: 0.032 µg/mL
- neutralization IC80 [12]: 0.552 µg/mL
- neutralization IC50 [13]: > 50 µg/mL
- neutralization IC80 [13]: > 50 µg/mL
- neutralization IC50 [14]: 1.95 µg/mL
- neutralization IC80 [14]: 31.5 µg/mL
- neutralization IC50 [15]: > 50 µg/mL
- neutralization IC80 [15]: > 50 µg/mL
- neutralization IC50 [16]: 0.367 µg/mL
- neutralization IC80 [16]: 11.8 µg/mL

Substance: N49P7.1 (antibody)
- IC50 [10]: 0.066 µg/mL
- IC80 [10]: 0.228 µg/mL
- MPI [10]: 100
- IC50 [11]: 0.764 µg/mL
- IC80 [11]: 2.71 µg/mL
- MPI [11]: 100
- IC50 [12]: 0.028 µg/mL
- IC80 [12]: 0.08 µg/mL
- MPI [12]: 100
- IC50 [13]: 0.279 µg/mL
- IC80 [13]: 1.01 µg/mL
- MPI [13]: 100
- IC50 [14]: 0.058 µg/mL
- IC80 [14]: 0.142 µg/mL
- MPI [14]: 100
- IC50 [15]: 0.497 µg/mL
- IC80 [15]: 1.51 µg/mL
- MPI [15]: 100
- IC50 [16]: 0.287 µg/mL
- IC80 [16]: 1 µg/mL
- MPI [16]: 100

Substance: NIH 45-46 (antibody)
- IC50 [10]: 0.01 µg/mL
- IC80 [10]: 0.04 µg/mL
- IC50 [11]: 0.55 µg/mL
- IC80 [11]: 1.56 µg/mL
- IC50 [12]: 0.03 µg/mL
- IC80 [12]: 0.03 µg/mL
- IC50 [13]: 1.29 µg/mL
- IC80 [13]: 5.55 µg/mL
- IC50 [14]: 0.01 µg/mL
- IC80 [14]: 0.03 µg/mL
- IC50 [16]: 0.65 µg/mL
- IC80 [16]: 0.65 µg/mL

Substance: 10E8 (antibody)
- IC50 [17]: 0.756 µg/mL
- IC80 [17]: 5.59 µg/mL
- IC50 [18]: 3.52 µg/mL
- IC80 [18]: > 10 µg/mL
- IC50 [19]: > 10 µg/mL
- IC80 [19]: > 10 µg/mL
- IC50 [20]: 1.9 µg/mL
- IC80 [20]: > 10 µg/mL
- IC50 [21]: 0.666 µg/mL
- IC80 [21]: 6.49 µg/mL
- IC50 [22]: 0.148 µg/mL
- IC80 [22]: 0.802 µg/mL
- IC50 [23]: 0.475 µg/mL
- IC80 [23]: 4.78 µg/mL
- IC50 [24]: 1.29 µg/mL
- IC80 [24]: 8.27 µg/mL
- IC50 [25]: 1.56 µg/mL
- IC80 [25]: 9.84 µg/mL
- IC50 [26]: 1.35 µg/mL
- IC80 [26]: 8.13 µg/mL
- IC50 [27]: 0.171 µg/mL
- IC80 [27]: 1.19 µg/mL
- IC50 [28]: 1.67 µg/mL
- IC80 [28]: 10 µg/mL
- IC50 [29]: 1.96 µg/mL
- IC80 [29]: > 10 µg/mL
- IC50 [30]: 0.445 µg/mL
- IC80 [30]: 2.71 µg/mL

Substance: PGT151 (antibody)
- neutralization IC50 [10]: > 50 µg/mL
- neutralization IC80 [10]: > 50 µg/mL
- neutralization IC50 [11]: 0.029 µg/mL
- neutralization IC80 [11]: 0.522 µg/mL
- neutralization IC50 [12]: 0.001 µg/mL
- neutralization IC80 [12]: 0.014 µg/mL
- neutralization IC50 [13]: 0.006 µg/mL
- neutralization IC80 [13]: 0.018 µg/mL
- neutralization IC50 [14]: 0.01 µg/mL
- neutralization IC80 [14]: > 50 µg/mL
- neutralization IC50 [15]: 0.427 µg/mL
- neutralization IC80 [15]: > 50 µg/mL
- neutralization IC50 [16]: > 50 µg/mL
- neutralization IC80 [16]: > 50 µg/mL
